From the supplement of paper PMC11502859

Test system: HEK293T
Test: median enrichment of reporter reads in eGFP-reduced (low/intermediate) vs eGFP-high sorted cells (eGFP-extension fusion abundance) (ratio); higher = stronger loss of eGFP-fusion protein abundance (more destabilising extension)
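Further: lentiviral eGFP-IRES-mCherry reporter pool sorted by FACS 96 h post-transduction, gated on mCherry-high cells, Illumina read counts normalized per million, median across four biological replicates.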

Substance | median enrichment
LGRLCPLPASLLCFPSPVSSLPSRPRHLPSVPWLSRTFYPTVRPQRGQDKPCPDAFDRQLCVLVDRCRNKEEMESAPEKLQIQ [H6PD] | 6.07
LPAASLHAPRSSLHGSPGRWQTMLRLHQGHRGAEGPMGEERRALLGKVGFLDPRDKLFRCHNVEESTWGTTVLVQVGLGKCTS [IGHMBP2] | 3.92
CFWNRVKLSQRRRKSPGICTS [PPP1R14C] | 13.7
YDTP [CD1A] | 0.395
YSPTPTAAYLHFQFLRGTEASSQHAANLWSLILTPSPTPVVGLYYV [KIF5A] | 6.66
YNLLLIIISEIISGSPWTTS [ZIC5] | 5.16
YRHQVW [SMAD3] | 1.22
EILSLAAICKGS [TET2] | 18.6
QRHGVLGGLMGTGACIFCWGMKLITLL [AGBL4] | 4.93
LVRRLGAPPRLRPASISLLQWPAS [IRF8] | 7.26
RESAGIEQSSPAQVSSLP [ZNF622] | 0.239
YLKNMYPL [ERCC5] | 7.72
QNRIEQNRIE [PCSK5] | 0.813
KECSKCGGKS [ZNF671] | 0.995
LNLNGHYKLSNST [ARMC4] | 1.8
SRDLDLGGVVRSSGRVPPGSPGEYMSPALGGVCYWPPTFLPRWTVLL [OXCT2] | 3.71
SGQGPRTQCLARPLPLAFEAKASSR [AGT] | 0.949
KTQMRASLRLPETARPKSQVQSFPTPLKFIVSSREKQIPIHPTNRCIVWVLEVPSKLLLVRLG [PPEF1] | 14.2
WLSLRKGRRRGAQGHLLP | 28.3
SCRVFSSFFLLQEFVVT [MMP16] | 3.12
YYYYY [Tyr05] | 22.4
SKRGHMESGGHLDD [PTGR1] | 0.345

Substance | median enrichment
WPVPGALLRPTTASWVGRTGSGGKSQRDQDGGCGAAFPVASIARRVFVCLSVFLTSFFYIFISRQS [NR6A1] | 9.66
YPALLPSDGHPSRGLSHTVPLRSA [CTDSP2] | 9.24
WARSAVSSQWILVNWWRLADTLEKPKPESLLFSLFSCLCSVSLNTTFSAMVCG [MRFAP1] | 5.48
YKRPWSGPTLRPSISQALSAVIPRTQWAPCTPVSGAVRLGYIVNSASTERLALRASSESSSSGTPPKPTPPGTPLSGIPAKRR [PRRT1] | 1.15
SDS [POLE2] | 0.445
GRCSDASAGAGTPNPWLQNRDPHPDRGSSAFEGFQAGLCGTEAQRGPGTWQRWGREEIQLPSLLPLLLQVPSNQELYILLVPQ [CCDC86] | 5.26
EGLATPVKAVLLLDTISSSGRAVERESNFLLEEYLCLLTLN [CDC14A] | 6.01
WGPAWHPVTPPQCLSWP [CSHL1] | 7.99
QAAVAPGDVCFIVPFFLLV [CCNB2] | 8.22
RASVGG [MDFI] | 9.54
WQDLLTSS [VN1R4] | 0.623
FFFF [Phe04] | 9.4
QLVKTMGVVLTQPPIPQGASGQSFWHCSRIPPSWCVWRVGKAGRDINLEENT [ARHGEF25] | 6.94
MMMM [Met04] | 1.4
YYY [Tyr03] | 1.14
LSGP [LCE1C] | 0.649
GGLLPLGPLTLSGWWTTKYNPVYNLKIYFTFVLLYLFIKG [SMAD4] | 5.18
LPFSGLQPPPGWKPWGPSGLGGAASRERAPFSGLPPQHAAS [CDR2L] | 5.38
QELVGSLRTPVLLTPSF [TSNAXIP1] | 2.24
RGAF [HPX] | 0.586
YEKCVVCGADSGHHVDSLALPQATSPGTIFLP [BTD] | 2.26
LGTQASPSLTAEVRNKRWFRVPA [PSMC3] | 8.36

Substance | median enrichment
LLLEIRLLQLDV [CDC27] | 10.6
QRHASFTISGKRTHCAYSDCRVYKRQPFGYYCCKVQILQASSDICIYCHYCLWKKQGIKVPVHLMYYFL [NEUROD1] | 14.6
SNIYLK [TEX12] | 0.685
WGEKPQKGKLQTSWETCAKDFAD [CXCL14] | 0.277
CNDKSRSKEIVGPKGKEGKSAPRLGPGTHTPPDHLGNSRALRSRMLTKSNIQSLVNQDAVSPSVWQSVALAAGKLKADFHSYV [RNF150] | 4.3
LSVHWGPSVVPFVENLLHKALLNCLELGTSIPMETSPVWGTWRICQRLSDMGPWQFYTGKWSAPLGYTRLSVFSPSILFPLHM [NYNRIN] | 3.7
ENSSSTMDFRLLVAVLT [ELF2] | 7.29
SARSAVSSQWILVNWWRLADTLEKPKPESLLFSLFSCLCSVSLNTTFSAMVCG [MRFAP1] | 5.22
WTAERTMHPSAWWSLRDRSDDPRRLWRTI [LILRA2] | 6.78
YTKYLKMGIILI [ST8SIA6] | 10.3
SGKWCFPQEDYWNWMTSE [ACBD5] | 2
WKDN [PIK3CA] | 0.482
LRKLILLIFMTNLYICF [RGS18] | 14.1
LHTELFIDTPHDCISRTHLLIILDPRETITSPSRQWRQIKISAEKEGHVEPQKHFYSG [SNTG1] | 9
QATPAWPRSQDTGQGRPGPEELGAGPQT [APBA2] | 0.312
SPELTAQSVDRASVRRHRERPGGSLSMDSQTAGEHLGQPPEGPLLDPRENLLALAVILE [ICOSLG] | 2.2
RDCACI [CPSF3] | 0.439
WKLRF [TRMT11] | 1.93
YKSKNIFLKVMMHSFGW [CENPW] | 4.27
PWPHQWHRGAPATGWPSGQPEHQGHCQPAAEAGEQDRDRPQRALPGQPSGFLRDGGRAGGRWRGMVDVPKRCQRAAGFRILLC [DECR2] | 3.51
CELLPCPSFPPCTT [FEZF2] | 0.681
LTLLKTGQSLPLCTF [MYCN] | 15.2

Substance | median enrichment
LNLKKSFQ [CCDC160] | 1.05
QIKLAVRNAKSC [RBMX] | 6.47
YRRLPRAPPHSMTRLWIPHCTSHSPLSAPSPPCWSCSHTPGTGLGHPLLPACVFLILGRPG [KRT71] | 6.31
YNYLLNQDKHAFLLPWFYL [NCKAP1] | 8.38
RGKTTGRPESGPARCSGEFLISSHWGN [BPIFB2] | 0.953
SVQMMWEFVGFLFFFFFDT [ZNF80] | 7.98
YTLENMYVWLIKCFKLN [NOTCH2NLA] | 7.83
LISHSYLLKYI [ELAVL4] | 7.49
RLHRNCW [OR2Z1] | 3.02
RGLGWAGARRAAGWPLGGQDGTVGTEVGGRGPSGLN [TNFRSF8] | 6.62
QRRERCASILEGQQEAELFCLDSHHGPFAENCLGFQQLHICICEL [TAFA4] | 18.2
WMQLVCHSI [SERPINB4] | 10.7
LNWD [PIK3C3] | 0.342
YRKVSVSPNPHSNEF [GPR22] | 41.8
YGTKPRRIPPQ [CA10] | 0.595
GGPMGMSMAQPSYTPPQMTPHPTQLRHGPPMHSYLPSHPHHPAMMMHGGPPTHPGMTMSAQSPTMLNSVDPNVGGQVMDIHAQ [MEIS2] | 2.36
WRKRDAGTHPCLREVWLSPNPPHRPPFTKHLSCLMCPIELHSVRLDAVISGTYVTMFAEAPGVVGRGGRCG [RNF144A] | 6.33
YQSVL [RNASE9] | 1.04
RLPAAQKNFALSFPVLFHTQKDPRKPVFNM [NR3C2] | 3.55
YQGPSQYPWRTREIAPYRQWRGVPSHRQEPEAQAAHPFQPSRTHTDGREGGHSMNYC [XYLT2] | 1.21
LLLLLLLLLL [Leu10] | 14.7
